{"source": "patent US9873733B2", "about": "“Anti-staphylococcal antibodies” (priority 2012, dated 2018)", "key": {"S. aureus SA113 Δspa [1]": {"system": "S. aureus SA113 Δspa", "experiment": "Killing of S. aureus by nisin with MprF antibodies", "assay_type": "cell-based, Staphylococcus aureus", "details": "antibody 100 μg/ml, 22.5 μg/ml nisin, 2 hours; anti-lysozyme antibody as control", "method": "In this experiment killing of Staphylococcus aureus was tested. Nisin was used as an exemplary cationic antimicrobial compound. Nisin was tested in combination with selected antibodies of the present invention. An anti-lysozyme antibody was used as a negative control.\n(§1) Overnight cultures of S. aureus SA113 Δspa were diluted in fresh MHB medium and adjusted to OD600 0.25 (˜1.5×10^7 cells). Antibodies were adjusted to a concentration of 1 mg/ml and 10 μl were applied per well of a 96 well plate and diluted in 90 μl of the adjusted cell suspension (final antibody concentration: 100 μg/ml). Cells were grown in the presence of anti-lysozyme antibody (control) or with the anti-MprF antibodies. Duplicates were employed for each assay. After 3 hours of incubation under shaking conditions at 37° C., optical density was determined, adjusted to OD600 0.025 in 500 μl ice cold PBS buffer. 80 μl of the adjusted cell suspension were diluted with 20 μl of antimicrobial substances to final concentrations of 22.5 μg/ml nisin. After incubation for 2 hours under shaking conditions at 37° C., the cell suspensions were diluted 1:2000 and 100 μl of each duplicate was plated in triplicates on TSB medium containing agar plates to obtain a representative value of bacterial survival. Cells treated without antimicrobial substance were set at 100% and survival values were calculated with cells treated with antimicrobial substances. At least three independent assays were employed."}, "S. aureus SA113 Δspa [2]": {"system": "S. aureus SA113 Δspa", "experiment": "Killing of S. aureus by daptomycin with MprF antibodies", "assay_type": "cell-based, Staphylococcus aureus", "details": "antibody 100 μg/ml, 12.5 μg/ml Daptomycin; anti-lysozyme antibody as control", "method": "as §1\nThe previous experiment was repeated, but instead of nisin, daptomycin is used. […]"}, "[3]": {"system": "S. aureus SA113 Δspa (MprF-mediated flipping of lysyl-phosphatidylglycerol)", "experiment": "Annexin V assay", "assay_type": "cell-based, Staphylococcus aureus", "details": "flow cytometry; anti-lysozyme pre-treated cells set at 100%", "method": "Annexin V binds preferentially to negatively charged phospholipids and is therefore a useful tool for measuring the relative content of MprF-mediated flipping of lysyl-phosphatidylglycerol, as translocation leads to reduced accessibility of negatively charged phospholipids in the outer leaflet of the membrane and therefore to reduced binding of annexin V. Cells (S. aureus SA113 Δspa) were grown in the presence of M-C4.1 or anti-lysozyme antibody and then treated with annexin V for 15 minutes before being analyzed by flow cytometry for surface-bound fluorophore (FL-4 channel). Data are expressed in relative fluorescence units and compared to cells pre-treated with anti-lysoyzme set at 100% fluorescence."}, "[4]": {"system": "S. aureus SA113 Δspa (flippase reaction of MprF)", "experiment": "Cytochrome C repulsion assay", "assay_type": "cell-based, Staphylococcus aureus", "details": "pre-incubation 3 hours, compared to anti-lysozyme antibodies", "method": "The repulsion of positively charged cytochrome C has been repeatedly employed to investigate charge dependent cell surface modifications in bacteria, including the flippase reaction of MprF, which leads to increased positively charged lipids in the outer leaflet of the membrane and to increased repulsion of cytochrome C (Ernst et al., PLoS Pathogens 2009). Briefly, cells were grown in the presence of M-C4.1 or anti-lysozyme for 3 hours, followed by incubation with cytochrome C for 15 minutes and measurement of optical density of the supernatant in order to determine repulsion of positively charged cytochrome C. The established cytochrome C repulsion assay was scaled down to accommodate for the reduced amount of bacteria employed in the killing-assays."}, "[5]": {"system": "Staphylococcus aureus clinical isolate 703", "experiment": "Killing of clinical isolate 703 by daptomycin", "assay_type": "cell-based", "details": "11 μg/ml daptomycin; anti-lysozyme antibody as control", "method": "as §1\nIn this experiment killing of Staphylococcus aureus clinical isolate 703 (described in Jones et al., AAC 2008) by daptomycin in the presence of an MprF specific antibody was analyzed. […]"}, "[6]": {"system": "MprF on S. aureus (Protein A deletion mutant, delta spa)", "experiment": "Whole cell ELISA on S. aureus", "assay_type": "binding, Staphylococcus aureus", "details": "E. coli as negative control", "method": "(§2) The specificity of the purified antibodies was tested for binding to whole cell Staphylococcus aureus in an ELISA assay. Escherichia coli bacteria were used as a negative control.\n(§3) For ELISA on S. aureus the Protein A deletion mutant (delta spa) or the mutant with an additional deletion in MprF (delta spa delta mprf) were grown to mid log phase, than washed in PBS and resuspended in saline to a final OD600 of 0.6. This bacterial culture was coated on Maxisorp plates (Nunc). Plates were blocked with 2% BSA/PBS and washed with TSB containing 0.5% TWEEN20."}, "[7]": {"target": "cyclic peptide representing loop 4 of MprF (Staphylococcus aureus, UniProt Q2G2M2)", "details": "IgG in PBS; biotinylated cyclic peptide 5 μg/ml", "method": "The IgGs were tested for binding to the antigen, which was used in their selection. Also binding to other MprF-peptides was tested to check for selectivity.\nFor ELISAs with cyclic antigen, the biotinylated cyclic peptides (final conc. 5 μg/ml) were incubated with IgGs in PBS. Then the mix was transferred to a pre-blocked Neutravidin plate (Thermo Scientific), incubated and then the plate was washed with PBS containing 0.5% of TWEEN20. MprF-specific IgGs were detected using goat-anti-human IgG (Sigma).\nIn both cases washing was performed using PBST ([…] with 0.05% TWEEN20. Detection was performed using alkaline phosphatase coupled Goat anti-human IgG (Sigma Cat. # A-8542 and Attophos™ substrate Roche, Cat. #11681982001). Fluorescence was measured at an excitation of 440±25 nm and an emission of 550±35 nm. Full signal intensity is typically reached after 5-15 min at room temperature."}, "S. aureus SA113 Δspa [8]": {"system": "S. aureus SA113 Δspa", "experiment": "Killing of S. aureus by LL-37 with MprF antibodies", "assay_type": "cell-based, Staphylococcus aureus", "details": "antibody 100 μg/ml, 45.0 μg/ml LL-37; anti-lysozyme antibody as control", "method": "as §1\nThe previous experiment was repeated, but instead of nisin LL-37 is used. […]"}, "[9]": {"system": "S. aureus mutants lacking MprF expression (delta spa delta mprF)", "experiment": "Whole cell ELISA on S. aureus mutant lacking MprF", "assay_type": "binding, Staphylococcus aureus", "details": "compared with delta spa", "method": "as §2, §3"}}}
{"molecule": "M-C4.1: human IgG1 against cyclic peptide, loop 4 of MprF; VH1A kappa 1; VL Seq. ID: 44, VH Seq. ID: 45 (antibody, V domains shown, MC41 VH; MC41 VL, human IgG1 against cyclic peptide, loop 4 of MprF; VH1A kappa 1; ID: 45) VH: QVQLVQSGAEVKKPGSSVKVSCKASGGTFNSYAISWVRQAPGQGLEWMGGIIPIFGMATYAQKFQGRVTITADESTSTAYMELSSLRSEDTAVYYCARSLFGRAYWGQGTLVTVSS VL: DIQMTQSPSSLSASVGDRVTITCRASQSISSFLAWYQQKPGKAPKLLIYDASSLQSGVPSRFSGSGSGTDFTLTISSLQPEDFATYYCLQADSTSYTFGQGTKVEIKRT", "values": [{"measurement": "Sensitivity of S. aureus towards nisin (killing, bacterial survival)", "setting": "S. aureus SA113 Δspa [1]", "value": "most pronounced effects"}, {"measurement": "Sensitivity of S. aureus towards daptomycin (killing)", "setting": "S. aureus SA113 Δspa [2]", "value": "increased the sensitivity of Staphylococcus aureus towards daptomycin"}, {"measurement": "Increased binding of annexin V", "setting": "[3]", "value": 70, "unit": "%"}, {"measurement": "Decreased repulsion of cytochrome C", "setting": "[4]", "value": 40, "unit": "%"}, {"measurement": "Susceptibility of S. aureus 703 to daptomycin (killing) with MprF antibody", "setting": "[5]", "value": "restored susceptibility of S. aureus 703 bacteria to daptomycin"}, {"measurement": "Binding to whole cell S. aureus (ELISA)", "setting": "[6]", "value": "detect MprF on S. aureus"}, {"measurement": "Specific binding to cyclic loop 4 peptide (ELISA)", "setting": "[7]", "value": "specifically bind to cyclic loop 4 peptide in a dose-dependent manner"}, {"measurement": "Sensitivity of S. aureus towards LL-37 (killing)", "setting": "S. aureus SA113 Δspa [8]", "value": "increased the sensitivity of Staphylococcus aureus towards LL-37"}, {"measurement": "Binding to S. aureus mutants lacking MprF expression (ELISA)", "setting": "[9]", "value": "significantly weaker binding"}]}
